Results from paper PMC9005727, “ComFC mediates transport and handling of single-stranded DNA during natural transformation” (Nature Communications, 2022).

B1: XV2 62-mer ssDNA (ssDNA)
DNA: TGGGTGAACCTGCAGGTGGGCAAAGATGTCCTAGCAATGTAATCGTCAAGCTTTATGCCGTT

Tests used:
ComFC (His6-ComFC) = biological target: T1, ComFC (His6-ComFC) (Helicobacter pylori, UniProt O26008); assay: differential scanning fluorimetry (SYPRO Orange); format: binding; settings: 20 mM Tris-Cl pH 7.5, 200 mM NaCl
T1 construct: gene HP_1473; full length, 191 residues, His6 tag kept (six His codons added at 5' end; also called ComFC-6His), pET21a, E. coli BL21(DE3) Gold
T1 sequence (O26008 1-191): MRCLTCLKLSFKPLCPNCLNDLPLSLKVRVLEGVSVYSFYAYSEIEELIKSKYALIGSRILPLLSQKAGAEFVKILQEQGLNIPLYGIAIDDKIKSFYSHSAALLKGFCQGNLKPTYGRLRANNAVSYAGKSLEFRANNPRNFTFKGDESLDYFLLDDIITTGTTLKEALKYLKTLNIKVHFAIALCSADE

ComFC T165A = ComFC T165A (Helicobacter pylori 26695, UniProt O26008 1-191, T165A); assay: EMSA; no significant difference from WT; settings: protein: recombinant; label: 5'-Cy5
ComFC WT (His6-ComFC) = biological target: T2, ComFC WT (His6-ComFC) (Helicobacter pylori 26695, UniProt O26008 1-191); assay: EMSA; EMSA: 10 mM Tris-HCl pH 7.5, 50 mM KCl, 1 mM DTT, 0.1 ug/ul BSA, 4 °C, 30 min; native 6% TBE-PAGE; settings: protein: recombinant; tags: His6 (text: codons added at 5' end, also written ComFC-6His); label: 5'-Cy5
T2 sequence: T1 sequence (O26008 1-191)

Molecule | dTm (ComFC (His6-ComFC)) | binding result (ComFC T165A) | apparent K (half saturation) (ComFC WT (His6-ComFC))
Nc1ncnc2c1ncn2[C@@H]1O[C@H](COP(=O)(O)OP(=O)(O)O)[C@@H](O)[C@H]1O [ADP] | ADP addition also resulted in an increase in melting temperature |  | 
B1 |  | binds | 300 nM
